Data taken from article PMC12774660 (Nucleic Acids Research, 2026).

Biological target: T1, CPSF73 (human, UniProt Q9UKF6 1-684)
T1 sequence: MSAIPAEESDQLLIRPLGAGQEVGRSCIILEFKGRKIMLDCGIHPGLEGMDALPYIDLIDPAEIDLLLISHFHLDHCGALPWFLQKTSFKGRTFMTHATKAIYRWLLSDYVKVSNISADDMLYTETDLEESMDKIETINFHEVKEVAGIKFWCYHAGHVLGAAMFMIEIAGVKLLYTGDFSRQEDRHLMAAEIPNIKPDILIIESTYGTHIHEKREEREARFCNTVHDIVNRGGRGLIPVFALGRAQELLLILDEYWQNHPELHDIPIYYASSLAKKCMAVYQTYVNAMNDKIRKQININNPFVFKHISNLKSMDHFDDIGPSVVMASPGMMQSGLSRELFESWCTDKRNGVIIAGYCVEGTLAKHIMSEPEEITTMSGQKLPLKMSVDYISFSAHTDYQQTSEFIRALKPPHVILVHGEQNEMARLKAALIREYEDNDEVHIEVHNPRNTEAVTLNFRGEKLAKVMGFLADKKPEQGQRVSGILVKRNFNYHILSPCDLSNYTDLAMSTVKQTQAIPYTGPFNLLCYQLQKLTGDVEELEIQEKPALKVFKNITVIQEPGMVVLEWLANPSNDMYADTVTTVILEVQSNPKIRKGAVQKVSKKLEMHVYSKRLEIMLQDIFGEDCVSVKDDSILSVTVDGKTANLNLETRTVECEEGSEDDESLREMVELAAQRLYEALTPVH
Assay: cell-based or functional assay

cleavage activity of the U7 snRNP with sextuple mutant Lsm11 toward the H2a* substrate, compared to the wild-type, in the absence of SLBP: ~3 fold lower
B1: Lsm11 R109E/I110A/R112E/L113A/R114E/L116A (natural protein, human, UniProt P83369 1-360, looked up)
chain: MEERERGARSAGAGSPARPPSPRLDVSSDSFDPLLALYAPRLPPIPYPNAPCFNNVAEYESFLRTGVRGGGRGRGRARGAAAGSGVPAAPGPSGRTRRRPDAPAPDPEEAQEAERAMVAKEEGDGAAGAGRRGPGRSRKAPRNVLTRMPLHEGSPLGELHRCIREGVKVNVHIRTFKGLRGVCTGFLVAFDKFWNMALTDVDETYRKPVLGKAYERDSSLTLTRLFDRLKLQDSSKKEADSKSAVEDSTLSRYSQTSTWKLASVWGRADTGRGSHKRSRSVPSSLQASAREESRSELSGRTTRTDGSSVGGTFSRATTLSRGQSRKKKRKPKVDYQQVFTRHINQIFIRGENVLLVHLAQ
